This test addresses T1, AXOR34 (Homo sapiens, UniProt Q9GZQ4).
T1 construct: expressed in transfected cells; host or cells: HEK-293 cells, transient transfection (pCDN vector as the empty-vector control)
The test can be described thus: FLIPR calcium mobilization assay in HEK-293 cells transiently transfected with AXOR34. The test is classed as cell-based. The note with it: ligand concentrations 1 μM-0.1 nM. An excerpt:
There was no concentration-dependent activity for pCDNs or untransfected cells.
On the technique in general: Calcium assays in cells follow changes in intracellular calcium, usually with a dye or a luminescent sensor.
T1 sequence (Q9GZQ4 whole entry): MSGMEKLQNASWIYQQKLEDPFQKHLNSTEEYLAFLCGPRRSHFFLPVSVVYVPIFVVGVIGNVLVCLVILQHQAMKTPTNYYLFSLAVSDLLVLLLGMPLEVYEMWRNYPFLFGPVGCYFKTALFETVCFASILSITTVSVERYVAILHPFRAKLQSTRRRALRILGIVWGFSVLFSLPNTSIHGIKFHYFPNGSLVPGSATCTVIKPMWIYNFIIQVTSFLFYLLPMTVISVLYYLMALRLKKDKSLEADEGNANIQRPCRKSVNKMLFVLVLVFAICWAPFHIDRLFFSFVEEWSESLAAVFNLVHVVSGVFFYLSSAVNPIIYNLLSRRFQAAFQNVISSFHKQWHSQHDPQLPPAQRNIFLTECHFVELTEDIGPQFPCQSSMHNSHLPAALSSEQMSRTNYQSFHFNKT
In the case of porcine Neuromedin U-8 [porcine NmU-8], the calcium mobilization response result is listed as “robust calcium mobilization responses”.
Take “rat Neuromedin U-23 (YKVNEYQGPVAPSGGFFLFRPRN; HOMO SAPIENS) [rat NmU-23]”: the calcium mobilization response entry is “robust calcium mobilization responses”.
For “porcine Neuromedin U-25 (FLVDEEFQGPIVSQNRRYFLFRPRN; HOMO SAPIENS) [porcine NmU-25]” the value was “robust calcium mobilization responses”.

Values taken from US6881827B2, “Molecular cloning of a 7TM receptor (AXOR34) and screening methods thereof” (SmithKline Beecham Corporation, priority 1999, dated 2005).
